Bridges are numbered along the chain shown (N, C = ends). Where no end group is shown, it is not given here.
Experiments:
Assay in all cases: cell-based or functional assay
TRPV2 [1] = biological target: T1, TRPV2
T1 sequence (Q9Y5S1 whole entry, species assumed, looked up): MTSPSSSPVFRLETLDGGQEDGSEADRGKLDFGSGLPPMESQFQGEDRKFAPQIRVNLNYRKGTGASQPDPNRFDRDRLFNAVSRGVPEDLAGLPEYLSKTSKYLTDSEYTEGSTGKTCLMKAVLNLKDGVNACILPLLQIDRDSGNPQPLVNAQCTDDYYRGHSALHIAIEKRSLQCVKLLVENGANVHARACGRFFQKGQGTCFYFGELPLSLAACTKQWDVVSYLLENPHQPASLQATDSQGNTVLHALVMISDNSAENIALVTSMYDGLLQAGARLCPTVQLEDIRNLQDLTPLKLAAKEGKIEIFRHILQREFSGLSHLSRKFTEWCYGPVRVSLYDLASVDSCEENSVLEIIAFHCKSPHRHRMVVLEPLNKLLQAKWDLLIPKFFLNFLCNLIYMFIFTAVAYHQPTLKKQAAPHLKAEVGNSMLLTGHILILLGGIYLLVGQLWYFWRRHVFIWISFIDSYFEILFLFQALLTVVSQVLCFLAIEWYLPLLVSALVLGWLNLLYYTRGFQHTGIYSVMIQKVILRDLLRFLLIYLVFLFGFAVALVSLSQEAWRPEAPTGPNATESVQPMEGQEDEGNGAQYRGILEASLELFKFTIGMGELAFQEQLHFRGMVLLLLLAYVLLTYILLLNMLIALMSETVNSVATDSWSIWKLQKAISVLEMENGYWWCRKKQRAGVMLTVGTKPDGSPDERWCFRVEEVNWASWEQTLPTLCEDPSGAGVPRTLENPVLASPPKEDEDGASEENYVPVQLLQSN

TRPV1 = biological target: TRPV1
Nav1.7 = biological target: Nav1.7
TRPM4-K1045A = biological target: TRPM4-K1045A
Nav1.5 = biological target: Nav1.5
TRPM2 = biological target: TRPM2
TRPA1 = biological target: TRPA1
TRPV3 = biological target: TRPV3
mouse TRPM8 channel [2] = biological target: T2, mouse TRPM8 channel (mouse, UniProt Q8R4D5 1-1104)
TRPV2 [3] = biological target: T1, TRPV2; remark: listed apart in the source
mouse TRPM8 channel [4] = biological target: T2, mouse TRPM8 channel; remark: listed apart in the source

T2 sequence (Q8R4D5 whole entry): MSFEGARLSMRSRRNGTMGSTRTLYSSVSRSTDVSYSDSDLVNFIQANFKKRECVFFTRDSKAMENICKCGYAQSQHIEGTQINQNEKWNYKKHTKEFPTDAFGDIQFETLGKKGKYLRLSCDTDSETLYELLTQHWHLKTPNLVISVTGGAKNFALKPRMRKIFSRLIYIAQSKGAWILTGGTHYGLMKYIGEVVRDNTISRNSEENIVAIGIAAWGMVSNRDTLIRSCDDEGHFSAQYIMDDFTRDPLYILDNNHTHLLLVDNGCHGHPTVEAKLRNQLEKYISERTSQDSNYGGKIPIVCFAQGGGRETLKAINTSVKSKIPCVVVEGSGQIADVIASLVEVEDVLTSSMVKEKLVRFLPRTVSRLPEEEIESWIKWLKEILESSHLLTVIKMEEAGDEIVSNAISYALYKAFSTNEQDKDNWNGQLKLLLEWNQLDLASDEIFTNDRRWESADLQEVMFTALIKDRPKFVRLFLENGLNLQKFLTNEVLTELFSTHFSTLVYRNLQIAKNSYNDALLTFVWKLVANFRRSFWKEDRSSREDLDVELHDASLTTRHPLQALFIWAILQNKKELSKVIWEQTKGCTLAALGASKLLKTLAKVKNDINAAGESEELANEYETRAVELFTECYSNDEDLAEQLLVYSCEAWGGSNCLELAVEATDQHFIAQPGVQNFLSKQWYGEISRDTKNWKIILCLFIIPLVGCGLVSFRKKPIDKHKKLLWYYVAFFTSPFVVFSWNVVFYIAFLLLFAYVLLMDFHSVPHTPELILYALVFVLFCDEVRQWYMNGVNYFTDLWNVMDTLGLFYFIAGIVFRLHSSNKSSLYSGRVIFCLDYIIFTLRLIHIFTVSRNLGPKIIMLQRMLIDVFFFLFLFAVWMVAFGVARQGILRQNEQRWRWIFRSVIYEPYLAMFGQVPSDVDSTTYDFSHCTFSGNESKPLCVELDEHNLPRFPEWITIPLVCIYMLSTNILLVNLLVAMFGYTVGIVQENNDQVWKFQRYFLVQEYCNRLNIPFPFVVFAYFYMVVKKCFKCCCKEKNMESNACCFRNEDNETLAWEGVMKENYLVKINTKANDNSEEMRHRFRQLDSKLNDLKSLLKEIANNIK
Sequence of TRPA1 (O75762 whole entry): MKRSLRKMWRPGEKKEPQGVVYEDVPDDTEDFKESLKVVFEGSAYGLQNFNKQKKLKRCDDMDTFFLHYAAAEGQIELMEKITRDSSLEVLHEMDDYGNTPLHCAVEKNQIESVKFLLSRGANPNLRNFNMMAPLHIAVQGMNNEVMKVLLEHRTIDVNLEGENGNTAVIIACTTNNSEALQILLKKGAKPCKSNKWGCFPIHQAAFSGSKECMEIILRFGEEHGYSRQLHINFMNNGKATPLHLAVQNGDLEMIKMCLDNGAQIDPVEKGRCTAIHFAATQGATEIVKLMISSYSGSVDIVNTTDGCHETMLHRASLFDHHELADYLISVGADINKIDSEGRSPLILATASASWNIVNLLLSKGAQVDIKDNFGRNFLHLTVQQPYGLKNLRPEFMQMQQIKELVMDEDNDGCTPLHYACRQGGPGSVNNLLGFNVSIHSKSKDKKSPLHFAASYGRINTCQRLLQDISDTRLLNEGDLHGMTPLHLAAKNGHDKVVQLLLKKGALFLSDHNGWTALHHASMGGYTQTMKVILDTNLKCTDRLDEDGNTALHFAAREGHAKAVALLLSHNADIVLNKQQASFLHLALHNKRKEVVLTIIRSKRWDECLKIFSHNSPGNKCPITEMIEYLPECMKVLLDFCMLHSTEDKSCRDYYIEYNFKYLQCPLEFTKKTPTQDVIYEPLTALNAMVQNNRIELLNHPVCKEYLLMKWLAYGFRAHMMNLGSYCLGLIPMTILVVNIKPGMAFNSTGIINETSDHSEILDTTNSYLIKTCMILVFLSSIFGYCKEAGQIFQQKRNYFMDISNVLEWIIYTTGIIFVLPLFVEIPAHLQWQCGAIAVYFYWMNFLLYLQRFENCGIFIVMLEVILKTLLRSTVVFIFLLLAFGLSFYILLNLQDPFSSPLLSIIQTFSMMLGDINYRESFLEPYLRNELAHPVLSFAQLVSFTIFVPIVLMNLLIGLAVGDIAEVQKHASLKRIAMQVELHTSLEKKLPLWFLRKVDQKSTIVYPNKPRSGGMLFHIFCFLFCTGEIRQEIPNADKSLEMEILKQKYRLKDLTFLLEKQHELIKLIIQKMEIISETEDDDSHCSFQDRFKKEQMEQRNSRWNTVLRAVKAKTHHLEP
Sequence of TRPV3 (Q8NET8 whole entry): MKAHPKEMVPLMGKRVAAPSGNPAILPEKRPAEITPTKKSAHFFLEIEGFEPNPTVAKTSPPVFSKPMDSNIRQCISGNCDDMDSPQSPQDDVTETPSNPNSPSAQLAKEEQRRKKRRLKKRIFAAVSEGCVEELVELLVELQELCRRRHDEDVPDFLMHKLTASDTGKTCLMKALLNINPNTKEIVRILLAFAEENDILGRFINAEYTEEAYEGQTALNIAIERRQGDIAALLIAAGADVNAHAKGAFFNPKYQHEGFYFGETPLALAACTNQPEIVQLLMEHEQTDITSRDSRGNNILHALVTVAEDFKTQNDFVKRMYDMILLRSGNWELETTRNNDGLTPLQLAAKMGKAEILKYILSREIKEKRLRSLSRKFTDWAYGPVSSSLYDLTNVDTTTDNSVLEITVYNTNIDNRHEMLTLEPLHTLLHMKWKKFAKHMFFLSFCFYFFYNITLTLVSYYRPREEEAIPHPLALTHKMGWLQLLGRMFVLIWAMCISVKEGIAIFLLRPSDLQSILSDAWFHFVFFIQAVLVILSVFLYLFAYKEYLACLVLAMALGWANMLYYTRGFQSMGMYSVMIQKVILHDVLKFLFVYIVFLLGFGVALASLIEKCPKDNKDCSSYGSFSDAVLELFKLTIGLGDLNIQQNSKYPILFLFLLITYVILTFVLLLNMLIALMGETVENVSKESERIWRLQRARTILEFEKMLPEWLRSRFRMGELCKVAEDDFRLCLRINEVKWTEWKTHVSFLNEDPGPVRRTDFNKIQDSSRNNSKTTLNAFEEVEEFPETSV

B1: polypeptide DeC-1.2 (peptide)
peptide: CRRDRARHYRQRC
modifications: disulfide 1-13
In the case of B1, the “half-inhibitory concentration (IC50), electrophysiology” value (TRPV2 [1]) is reported as ~10 µM, the “IC50, inhibition of ligand-activated channel current, electrophysiology” value (TRPV1) is reported as > 100 µM and the “IC50, inhibition of sodium channel current, electrophysiology” value (Nav1.7) is reported as > 100 µM. For the same binder, the “IC50, inhibition of ligand-activated channel current, electrophysiology” value (TRPM4-K1045A) was > 10 µM, the “IC50, inhibition of sodium channel current, electrophysiology” value (Nav1.5) was > 100 µM and the “IC50, inhibition of ligand-activated channel current, electrophysiology” value (TRPM2) was > 100 µM. For the same binder, the “IC50, inhibition of channel current, electrophysiology” value (TRPA1) was > 100 µM, the “IC50, inhibition of ligand-activated channel current, electrophysiology” value (TRPV3) was > 100 µM and the “IC50, inhibition of menthol-activated TRPM8 current, whole-cell electrophysiology” value (mouse TRPM8 channel [2]) was 4.5 nM. The “IC50, inhibition of ligand-activated channel current, electrophysiology” value (TRPV2 [3]) was > 5 µM.

B2: polypeptide DeC-1.1 (peptide)
peptide: CRNSRAAHDSQKC
modifications: disulfide 1-13
In the case of B2, the “half-inhibitory concentration (IC50), electrophysiology” value (mouse TRPM8 channel [4]) is reported as 133 µM.

Reference: patent publication US20240417428A1 (ZHEJIANG UNIVERSITY, published 2024)
